Test results: the supplement of paper PMC12455559

Assay: purified protein yield per well (BCA); higher = higher soluble expression
Procedure, shortened: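 On an OT-2 robot, lysed cells were processed by binding protein to Ni-charged magnetic beads and releasing it with SUMO protease. Expression took place in E. coli C41(DE3), in 2 mL autoinduction cultures with 100 µg/mL kanamycin, for 2 h at 37 °C followed by 40 h at 18 °C. The Pierce Rapid Gold BCA kit was used to quantify purified protein yield in each well, with values under 25 ug (0.1 mg/mL) below the detection threshold.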

LQMQSLINIGPLQISEINESMGLRNGTDYNGATIYYPINQNNLSSIVLVPGFMNTELTIQNWGPFFASHGIITMTIGTNSLTDTHVQRRDALFDAIISLKQENQRIASPLFGKLDTSSIAVGGFSKGGGGAQLLAKFDPSLKAVVALYPWLENVTASDLEHTVPLIIISGQLDAIAPPFLHADIQYNLTPMTTKKLKYEVAFASHDAISGPYAGNGEVGARVLSWLNTFLVTDSCYCPLLLEQPITSSSYTTNIVCSNLFTNIYESNKSYSKEIIEIRDLYGRKVKFSNSRILIYIYNDGSYEKKITL [TEP016]
purified protein yield per well: < 25 µg

MSATRGTFATAQLSVPAGNGFGGGVIYYPTDTSQGTFGGVAIVPGYSALFANEEAWMGPWLASFGFVVIGIETNSRTDGADARATQLLAALDYLTQRSSVRDRVDSSRLSVVGHSAGGAGVILATGQRPSLKAAVGLAPGSPTGNLSLANDRVPMMFISGQRDTTVTQSYLNGLYTTLPASTPSAWVEITGVDHLFATRANTTEMRTLIPWLKIFVDNDTRYTQFLCPLMDSSNISMYRNKCPYVPPGGPSPSPSPSPSPSPSPSPSPSPSPSPSPSPSPSPSPSPSPSPSAGACTASYRTTNSWPGGHQGEVTVTAGGSAISGWTVRWTLGSGQTVSQVWNGTLSVSGSTVTVTNASYNGSLPASGSTTFGFLGTGTASAPSLTCTSRP [ESM002]
purified protein yield per well: < 25 µg

QSNPYARGPDPTTAALEASRGPFAFSSFSVTRPSGYGAGTVYYPTNAGGTVGAIAIVPGFFARQSSINWWGPRLASHGFVVITIDTNSTFDQPASRASQQMAALRQVATLAGTSSSPIYRKVDTARLGVMGWSMGGGGTLLAARDNPSLKAAAPQAPWNSSTTNFSSMTVPTLIIACESDSTAPTRSHAEPFYTSMSRNSKQYLEINNGSHSCANGGSNTGLLGKKGVAWMKRFMDEDRRYTSFACSNPNSSAVSDFRTANCS [ESM149]
purified protein yield per well: < 25 µg

PWTSYSAGATVYYPRTATAPFSAIVFMQPYTGTQAMNYAWGPWFASHGIVYVNYDSTTTLDTVDSRATQQMNAINALKNENNRSASPLYRKLDTSRIGVMGWSMGGGASWINSANSSIKTAMSLAGHSLTAVSIYKSGRYTKCPTMIFSGLLDTTYLGGMGQSEGVYRNIPSGIAKIHYEVRSAGHMAWGSPTSASSNVAKIALAFQKTFLDGDTRWAAYLTQPSDASTWNTASLPSTGGTTPDYPWWYWWR [TEP072]
purified protein yield per well: < 25 µg

MSGFGGGTIYYPSGTTGTMAAIVVIPGYVSSQSSIEWWGPRLASNGFVVMTIDTNATTDQPPARARQINAALDYLIAQNRASGSPVNGMIDTSRLGVVGWSMGGGGTLRVASEGRIKAAIPLAPWDTTTFRNVKAPTLIFACESDTIAPVRNHASPFYNQVPTSIPKAFVQLNRGNHYCANGGNAFNADLSRLGVSWMKRFLDNDRRFSQFLCGPNHTSDRDISEYRGNCPY [TEP104]
purified protein yield per well: < 25 µg

RDLPPSAPLAANPYERGPAPTVASIEATLGPFATAQTTVAAGSVSGFGGGTIYYPTSTAEGTFGAVAISPGFTARQTSVAWLGPRLASQGFVVITIDTRSVYDQPASRGTQLLAALDYLTNTSTVRTRIDRNRLAVMGHSMGGGGSLSAASTRPALQAAIPLTGWHTQKSWSSVRVPTLVIGAENDTVAPVSSHSEPFYTSLPATLDKAYLELNAASHSAPTSSNVTVAKYSISWLKRFVDDDTRYEQFLCPAPRGSAIEEYRDTCPHS [TEP042]
purified protein yield per well: < 25 µg

IRETRVSSSVRGFGGGTIYYPTGTSGTMGAIVVIPGFVSPESSIAWWGPKLASHGFVVMTIATNRTTDQPSSRATQINAALDYLISQNSTSGSPVRNMIDTDRLGVMGWSMGGGGTLRVASQNRLKAAIPLAPYDTISFRNVDAPTLIFGCESDTVAPVRNHASPFYNQIPAGTDKAFVELNGGSHTCANGGNQYLSLIHI [ESM057]
purified protein yield per well: < 25 µg

ENPHERGPDPTEESVTAPTGPFDTDTENVSSLVSGFGGGTIYYPTDDSEGTFGGVVVAPGYTASESSMSWYGERIASQGFVVFTIDTNTRYDQPNSRGRQMESALDYLVEDSDVDDMVDGDRLALMGHSMGGGGTLAAAEDRPELRAAIPLTPWHLSKDWSDVEVPTMIVGAENDSIASTRSHAVPLYESLDEDLDSTYLELRNATHFAPNISNTTIAKYSISWLKRFVDDDVRYEQFLCPAPDTGFGTDFSDYRDSCPHGGSV [DP041]
purified protein yield per well: < 25 µg

APQAPENPYQRGPAPTEQSIVADRGSFEVERISVGSWSGPGFNKGTIYAPKDRSQGTFGAIAVSPGFVSPEYLISWYGERLASRGFVVMTIETTTLYDQPAQRGDQLLAALDYVVSDDSPVRDRVDPNRLAVMGHSMGGGGTLHAVKERKSLKAAVPLMPWNLFTDWGDVQTPTMIIGAQNDLIASVGLHSEPFYNSLRSAREKAYLEMDGAGHLVANSPNDTIAKYTIAWMKRYVDNDTRYEQFLCPAPSRDRNISEYRDTCPGS [DP015]
purified protein yield per well: < 25 µg

QVANPYAKGPNPTEASVTATTGPFAVTTSNISSLVSGFGGGRLYYPTATNQGTYGAIALSPGFTAGWSSIDWLGPRLASFGFVVIGIETNSRYDYPPSRGEQLLAALDWAVEDSPAASRIDPTRLAVGGHSMGGGGSLEAASDRPSLKAVLPLAPWNSDKTWNEVQVPTLIIGGESDTVAPVGSHSTPFYNSLSGEKAFLELNNASHFFPQSPNNLVAKLAISWAKRWVDNDTRYSQFLCPGPASGGLSEVQAYRQTCPF [TEP096]
purified protein yield per well: < 25 µg

MASVAAQYGPFATAQITVPPGNGFNGGFIYYPTDTSHTYGAVAIVPGYTALFANEEAWMGPRLASFGFVVIGVETNNRNDYDTARGTQLLAALDYLTNSSAVRDRVDRNRLSVIGHSMGGGGALYAATQRPSLKAAIGLAPFKPSGNLASDNVPTMIIGGINDTTVTPSYLDGLYPTLPASTPGAYIQLANADHLYFTRPNDIELRSQIEWLKIFVDNDTRYTQFLCPSIKDTTGIVRSSVKCSTIPSGGSTPPSSPSVPPSSPPSGPQRILGSQSGRCVDVPNATHDNGTRVQLYDCNGQANQQWTYTSSKQLTVYGNVCLDAAGSGNGSAVQIYSCNGQPNQQWNVNANGTITGVQSGRCLDVWGTGNGQQFQLWDCNGQANQRFGLS [ESM074]
purified protein yield per well: < 25 µg

CGLCKAQTCDTLTLDSIYDPGAYSFATLLESDGIRNGPDYAGATIYYPTNGIPPYPAIAICPGHSTFEYTIQAWGPFYASHGIVTITIGTNSIYDYPDARKNAILDALETVRQENVRSGSPLFGYLDLSRLAVSGWSMGGGGAQLAAAADTTIKAVVGLCPWLESWRTAADLNHPVPTLILSGQIDAIAPPYYHADVHYGYIP [TEP133]
purified protein yield per well: < 25 µg

AAPVHHPVTRPAPAHHQPAAAAVDQIVVPAAADARFGGGTIFAPRGAGQKVLGSVVVTPGFHGRKSDMAVYGTELAAEGFVVFTIDTRDRADLPDQRATEMLAAADYLTGRSAVKGEVSPDRVALLGYSMGGGGTLQAAQERPSIKAALTLMPYDYPPAGDPKAVHPAYPELTVPTLIITGQKDATAIPAKFGKPAYDSIPAGTPKQYLQLTGLGHAAGMGKPTVAIRAAVTAFLERYLDGDTAYAKQICPAPKVGGPISASISSCPAG [ESM150]
purified protein yield per well: < 25 µg

AADNPYERGPDPTEQSVTAIRGPFNVAQTDVSRLAVTGFGGGTIYYPTDTSQGTFGAIAISPGFTAYWSSLSWLGPRLASQGFVVFGIETNTTLDQPAQRGQQLLAALDYLTQRSSVRSRVDASRLAVAGHSMGGGGTLEAAKSRTSLKAAIPIAPWNLDKTWPEVRTPTLIIGGELDSIAPVATHSKPFYSSLSNAPEKAYLELDNASHFFPQISNTTMAKYMISWMKRFIDNDTRYDQFLCPPPRAIGDISDYQDTCPHS [TEP031]
purified protein yield per well: < 25 µg

MVSYSPRYKAVAFTVAAGLVGGGLAGLAPNRHERGPDPTRALLEAPRGPLATARTVVPRAEAAGYGGGTIYHPAEMRTGETYGAVAIIPGRNGPQSGMSWYGPRLASHGFIVFTIDALRPLDRPPARGAQLQAALQQLAVRSPVATHVDAGRLAVMGHSLGGAGALEAAKARPGLRAAIPLTPSDVAGPDFSGVRVPTLILAAEKDTVAPLGRHARKFYRAIPRGTEKAYVELAGATHGFPKLPHPTVARYTIAWLKRWVDGDRRYDRVLCPSGRREPAVSFQRDTCPHD [TEP187]
purified protein yield per well: < 25 µg

ADNPYERGPDPSWSSIEALRGPYTVDDTSVSRWVSGFGGGTIYYPDTTRDGDFGAAVISPGYTGTQSSIDWLGPRLASQGFVVLTIDTNSVYDQPDSRADQLQAALDYLTGSSDVADRIDPDRLALMGHSMGGGGTLRAVDDDPSIKAAIPMTPWHIKKNWSSVSTPTLIFGAERDSIAPHETHAEPFYDSLSRSLPKAYLELNNASHFAPNSSNTEIASISIAWLKRFVDDDTRYEQFVCPGPSGYAIEKYESSCPF [TEP128]
purified protein yield per well: < 25 µg

VENGPAPSLASIQADGPYAVSTQTVSGSGFGGGTVYSPNTAGKYAVVAVCPGFTATQSSIAAISRRLATHGFVVVTINTTSVYDFPSSRANQLLAALRTVTALATGPVAGKMDTTRQGVAGWSMGGGGAMLAAGMTPGLKGGVAFAPWSQSNNVSRSAVPMAYLAGTADTVAPAGSHASVFYNATPATTKKLLGVITGADHNFPKTASQPASYTQVAWMKRFLDGDTRYAQFLKGDTRFTTFRSTGPF [ESM107]
purified protein yield per well: < 25 µg

STPAHHAAARTAAHHHAPFAVRATVVPKTAVKAFGGGVIYTPQDTGKAVLGAVVITPGFTDTSADEKEMAELVASQGFVAFAIDTLDTGDLPDQRATEILAAADYLTGQSAVRSEVSAKDVGLIGYSFGGGGTMQAAQARPSIKAAIGLMPYDFPPADQPDAQYPAYPKLTTPTLVITGQKDDLAVPAEFGKPAYDSIPAGTPKQYLELKGLGHAAGEHVPVATIRTAVTAFLKRYLDGNSAYAKYICPAPKVGGPISASTSSCPKG [TEP196]
purified protein yield per well: < 25 µg

QTNPYARGPNPTASSLEASTGPFAYRSFTVSRPSGYGAGTVYYPTNAGGTVGAIAIVPGYTARQSSINWWGPRLASHGFVVITIDTNSTLDQPSSRSRQQMAALQQVASLNSTSSSPIYGKVDTSRMGVMGWSMGGGGSLISARDNPSLKAAAPQAPWNTSSSFSSMTVPTLIFACESDSIAPVNSHASPMYNSMRSNPRQYLEINNGSHSCANSGNSNQALIGKKGVAWMKRYMDNDTRYSTFACQNPNSTRVSDFRVANCS [ESM094]
purified protein yield per well: < 25 µg

QAIGPDPTAASLAADGPFAVSTQTASRATGFAGGTIYVPNTAGRYALVAFCPGFTNSQSAVAALGRRLATHGFVVVTMNTNSIFDFPASRATQLIAALNTVAAISTGPVVGKVDSARRMVAGYSMGGGGALIAARGNPSLRGAVALAPWSDSDKNFSTTTVPTAIVAGSADTTASPTDHATVFYNSMPTTTKKLLAIISGATHSFPTTSTPNQPASGYQIAWSKRFADQDVRYGPFLVTDSRLSSFASTGPF [ESM142]
purified protein yield per well: < 25 µg
